In one experiment the target is HLA-A*26:01. In words: IEDB peptide-MHC binding, purified MHC/competitive/radioactivity; filed as Kd, often an IC50 or EC50 that approximates it; ≥ and ≤ were set here for values at or beyond the usual limits of such assays.
In the next experiment the target is HLA-A*23:01. The description is as above.
For a further experiment, the target named is HLA-A*24:02. The description is as above.
For the next experiment, the target named is HLA-A*01:01. The experiment is described as above.
A further experiment concerns the target HLA-A*29:02. The description is as above.
In a further experiment the target is HLA-A*30:02. The description is as above.
The target of another experiment is HLA-B*58:01. In words: IEDB peptide-MHC binding, purified MHC/direct/fluorescence; filed as Kd, often an IC50 or EC50 that approximates it; ≥ and ≤ were set here for values at or beyond the usual limits of such assays.
The target of the next experiment is HLA-B*57:01. The experiment is described as above.
The target in experiment [1] is HLA-B*46:01. In words: IEDB peptide-MHC binding, purified MHC/competitive/fluorescence; filed as Kd, often an IC50 or EC50 that approximates it; ≥ and ≤ were set here for values at or beyond the usual limits of such assays. The settings on record: source organism: Cryptosporidium parvum Iowa II.
A further experiment addresses HLA-B*44:03. The experiment is described as follows: IEDB peptide-MHC binding, purified MHC/competitive/radioactivity; filed as Kd, often an IC50 or EC50 that approximates it; ≥ and ≤ were set here for values at or beyond the usual limits of such assays.
In the next experiment the target is HLA-B*44:02. Described as above.
The target of a further experiment is HLA-B*27:05. In words: IEDB peptide-MHC binding, purified MHC/direct/fluorescence; filed as Kd, often an IC50 or EC50 that approximates it; ≥ and ≤ were set here for values at or beyond the usual limits of such assays. Conditions: source organism: Mammarenavirus juninense.
In a further experiment the target is HLA-B*51:01. The experiment is described as follows: IEDB peptide-MHC binding, purified MHC/competitive/fluorescence; filed as Kd, often an IC50 or EC50 that approximates it; ≥ and ≤ were set here for values at or beyond the usual limits of such assays. The settings on record: source organism: Mycobacterium tuberculosis C.
The target in another experiment is HLA-B*07:02. In words: IEDB peptide-MHC binding, purified MHC/direct/fluorescence; filed as Kd, often an IC50 or EC50 that approximates it; ≥ and ≤ were set here for values at or beyond the usual limits of such assays. The settings on record: source organism: Mycobacterium avium 104.
The next experiment deals with HLA-B*15:01. Described as above. Conditions: source organism: Yellow fever virus 1899/81.
Experiment [2] has as its target HLA-B*46:01. The description is as above. The settings on record: source organism: Yellow fever virus 1899/81.
[3] abbreviates: source organism: SARS coronavirus Tor2.
[4] abbreviates: source organism: Burkholderia mallei.
Where [5] appears, read: source organism: Mammarenavirus machupoense.
[6] abbreviates: source organism: Mammarenavirus whitewaterense.
Where [7] appears, read: source organism: Mammarenavirus juninense.
The mark [8] stands for this setting: source organism: Cryptosporidium hominis.
Where [9] appears, read: source organism: Dengue virus 1 Brazil/97-11/1997.
Setting [10] is: source organism: Dengue virus 2 Jamaica/1409/1983.
Where [11] appears, read: source organism: Dengue virus 4 Philippines/H241/1956.
[12] abbreviates: source organism: Mammarenavirus guanaritoense.

This is an account of results in the Immune Epitope Database (IEDB).

Bounds are passed on as bounds.

As usually defined, the Kd is a measure of binding affinity in units of concentration. In the case of KTIVESCGNY, the Kd is 1350 nM with HLA-A*26:01 (setting [3]); no less than 70000 nM in the experiment with HLA-A*23:01 (setting [3]); no less than 70300 nM in the experiment with HLA-A*24:02 (setting [3]); 240 nM with HLA-A*01:01 (setting [3]); 844 nM with HLA-A*29:02 (setting [3]); 1.69 nM in the experiment with HLA-A*30:02 (setting [3]).
For LAASVFFTF, the equilibrium dissociation constant (Kd) with HLA-B*58:01 (setting [4]) came to 203 nM; with HLA-B*57:01 (setting [4]), 2140 nM.
For LCMLNNSLYY, the Kd in the experiment with HLA-A*26:01 (setting [5]) was no less than 69700 nM; in the experiment with HLA-A*23:01 (setting [5]) it was no less than 40400 nM; with HLA-A*24:02 (setting [5]), no less than 55200 nM; with HLA-A*01:01 (setting [5]), 367 nM; with HLA-A*29:02 (setting [5]), 7.19 nM; with HLA-A*30:02 (setting [5]), 181 nM.
Take LLQFIVFLL: the results for the Kd in the experiment with HLA-A*23:01 (setting [6]), in the experiment with HLA-A*24:02 (setting [6]) and in the experiment with HLA-A*29:02 (setting [6]) were 18800 nM, no less than 77500 nM and no less than 23400 nM, respectively.
In the case of LVIASLPLF, the Kd stood at 19.1 nM with HLA-A*23:01 (setting [7]), 484 nM with HLA-A*24:02 (setting [7]) and 1210 nM with HLA-A*29:02 (setting [7]).
As to LYIIKLVFLW, the Kd was 1170 nM in the experiment with HLA-A*26:01 (setting [3]); 0.165 nM in the experiment with HLA-A*23:01 (setting [3]); 20.9 nM in the experiment with HLA-A*24:02 (setting [3]); 13600 nM with HLA-A*01:01 (setting [3]); no less than 31800 nM with HLA-A*29:02 (setting [3]); no less than 85700 nM in the experiment with HLA-A*30:02 (setting [3]).
Take MSFSDTFEM: the figures for the Kd in the experiment with HLA-B*46:01 [1], with HLA-B*58:01 (setting [8]) and with HLA-B*57:01 (setting [8]) were 205 nM, 0.6 nM and 55.3 nM, respectively.
NEMGLLETTK: the values for the Kd with HLA-B*44:03 (setting [9]) and in the experiment with HLA-B*44:02 (setting [9]) were no less than 20700 nM and 1690 nM, respectively.
For the sequence NEPEDIDCW, the Kd in the experiment with HLA-B*44:03 (setting [10]) amounted to 870 nM; in the experiment with HLA-B*44:02 (setting [10]) it was 1080 nM.
Turning to PYNSVTDTI, the dissociation constant Kd with HLA-A*26:01 (setting [3]) was no less than 77900 nM; in the experiment with HLA-A*23:01 (setting [3]), 20.3 nM; with HLA-A*24:02 (setting [3]), 7.16 nM; with HLA-A*01:01 (setting [3]) it was no less than 78100 nM; with HLA-A*29:02 (setting [3]), 6820 nM; with HLA-A*30:02 (setting [3]), no less than 81100 nM.
With QEEHKETWHY, the Kd was determined as 422 nM in the experiment with HLA-B*44:03 (setting [11]) and 685 nM with HLA-B*44:02 (setting [11]).
Regarding QQICSNFKI, the Kd in the experiment with HLA-A*23:01 (setting [12]) was 98.8 nM; in the experiment with HLA-A*24:02 (setting [12]), 13100 nM; in the experiment with HLA-A*29:02 (setting [12]) it was 3770 nM.
Turning to RELKCGSGIF, the Kd with HLA-B*44:03 (setting [9]) turned out to be 151 nM; with HLA-B*44:02 (setting [9]), 54.8 nM.
As for RRGLSQFTQ, the Kd with HLA-B*27:05 is no less than 20000 nM.
Regarding TPKFTRMVV, the Kd with HLA-B*51:01 was no less than 20000 nM; with HLA-B*07:02, 104 nM.
As for VGIPTHRHL, the Kd with HLA-A*26:01 (setting [5]) is no less than 77900 nM; with HLA-A*23:01 (setting [5]), 14000 nM; with HLA-A*24:02 (setting [5]), no less than 40300 nM; with HLA-A*01:01 (setting [5]), no less than 69400 nM; with HLA-A*29:02 (setting [5]), no less than 78900 nM; with HLA-A*30:02 (setting [5]) it was 14300 nM.
As for VMMSAPPAEY, the Kd is 9020 nM with HLA-A*26:01 (setting [3]); no less than 39900 nM with HLA-A*23:01 (setting [3]); no less than 35600 nM with HLA-A*24:02 (setting [3]); 154 nM in the experiment with HLA-A*01:01 (setting [3]); 3.16 nM with HLA-A*29:02 (setting [3]); 4.31 nM in the experiment with HLA-A*30:02 (setting [3]).
As for VYMDAVFEY, the values for the Kd with HLA-B*15:01 and with HLA-B*46:01 [2] were 600 nM and no less than 20000 nM, respectively.
On to YSNRNRFLY, for which the Kd in the experiment with HLA-A*26:01 (setting [3]) stood at 1470 nM; with HLA-A*23:01 (setting [3]), 5690 nM; in the experiment with HLA-A*24:02 (setting [3]) it was 3040 nM; with HLA-A*01:01 (setting [3]), 2.9 nM; with HLA-A*29:02 (setting [3]) it was 0.588 nM; with HLA-A*30:02 (setting [3]), 0.453 nM.
Regarding YTTTIKPVSY, the Kd with HLA-A*26:01 (setting [3]) was 878 nM; with HLA-A*23:01 (setting [3]) it was no less than 70000 nM; in the experiment with HLA-A*24:02 (setting [3]), no less than 70300 nM; in the experiment with HLA-A*01:01 (setting [3]) it was 41.6 nM; with HLA-A*29:02 (setting [3]), 31.6 nM; with HLA-A*30:02 (setting [3]), 1020 nM.
